Reference: the DeepSol protein solubility set

Assay: soluble on expression in E. coli; label from the status in PepcDB or PDB records

**Q.** With “MSLRERVKAHPKPADEQLLTRIRDHSISMLLNFLNSMFDGVDDSFFELANHAHTNNEQNRYFEAMREIRIKRKGIENHFQQELARLFNQPPSQHKTSESLSDNVDVDVLSLVQNDALEESVAINSMISKARANFSGSLLQFQTRVSSVYGETNEENAVNPLDPEHICKAFSDACIGLDIEIKEKLIVYKQFDRYVMGNLVECLEEANKIMIQAGVMPNLKYTAKKSRVTPRSTSDVSARPLEAQSDANGYDGAGDVFSQVQELLSALRNTASNPEQQQGDPNTGAGGRQAPPPGNVQFIADADLLSILSRLQHSVRTENLAEGPVVALDLRTAVQGLLSEESQKSGKATALDQIDEDLINLVSMLFEFILDDYNLSAPIQVLISRLQIPILKVAIRDKSFFSKPSHPARKLLNALAKAGIGWSDASEKKRDKLYEQIHRAVQRILEEFNGESELFEEIYQEFSQYLSREERKAKLVEQRTKEAEIGRVKSHKAHQVVEQILSEKIAAQPLPPVAVELLRGGWSRVMFLAYLKEDTEHRLNQCTKVVDELTWCLQPHAEVEARQRWVKVVPQLLKNLKAGLKEVSYNSAKLEHMLGELKKALTETFKQQSITSAQNDAPKPPAPVAAVIEQKLTPAIKTAVERQSEYEDAALAEYLTKIDEMECGAWIEFSLVNGTRFRCKLSTKIEDSDTYIFVNRLGLKVVEKTRGELAHELRKGRIKALEEGLLFDRAMNAVIGNLRKMSGEGHHHHHH” as the sequence, how does the “soluble on expression in E. coli” value read?
**A.** soluble

**Q.** For “MSTLAPLFLAKHPDGEERQVIRPNVWETSCADTETLSIFHIEGMADPDLLCRVLNLFAVQSFTPERVRADREDHKIRLLLTFPGLSQHRASVIAEKLRSLVTVLAVRLEFSPHAGKVRPSVSEPLLASVV”, which “soluble on expression in E. coli” value is on record?
**A.** not soluble

**Q.** With “MGSDKIHHHHHHMTENNGFQQHVAKVYREHRGERIVPFEYQGKRYWLKQVEHLAGAMRLLKQNSTAALHKEIGILNTLSHIGAPVPAVVDYGDGYMVVEDVGNTINHLLDHTSQALWQPILNDVSVALAKLHSMQLAHGRPALRDISWQAGEVKFIDFEANQQHKSVVSQQVRDVLVFIHSLYRYIGPNNRMINQAIACYRLAGGEAIWQKAKQFLASWQWLYYFARPFRDFGGKDLKPVYWVLWHFRQAPLTLA” as the sequence, how does the “soluble on expression in E. coli” value read?
**A.** not soluble

**Q.** For “MVLNIKRASSLDGATINVQDVLKPFDHQVGGHTPFTSLPNGHLLKPCEEREILFYQKMPKILKSIAPLCCSTIQGSSVSTLDDSCSNCRHHQLENVVIPESIEGSPILNKRKLSKNFIVLSDLTYRMKSPRILDLKLGTRQHGDQATVSKIACMTAKCQATTSATLGIRLCGMKIPFLEQNSQNFAPNFAPNSAAPNFAPKSEISINKYMGRSMDKTDLFLAVKQFFDVPEAVLEEVERRLLGIRDVLCGADGVRLFGASLLIVIESNFSDSQLPIDNLVRIKVVDFANATFGGLQGDSFYDGRDDGSILGLETLLEIVKGKN”, which “soluble on expression in E. coli” value is on record?
**A.** not soluble

**Q.** With “AIAQNDAGEFVDLYVPRKCSASNRIIGAKDHASIQMNVAEVSWEPGRREGCDICAGKAGCPIVEEPLG” as the sequence, how does the “soluble on expression in E. coli” value read?
**A.** soluble

**Q.** With “MAQLYFYYSAMNAGKSTSLLQSSYNYRERGMNTLVMTASIDDRYGKGKVASRIGIESDAQVFSSHDNLIEMITAAHQENHLSCVLVDECQFLSKEQVKQLTYIVDKIDIPVLCYGLRTDFQGELFSGSHYLLAWADKLVELKTICHCGRKANMVVRLDGEGKVMREGEQVAIGGNESYESVCRKHFREFIWD” as the sequence, how does the “soluble on expression in E. coli” value read?
**A.** soluble

**Q.** Which “soluble on expression in E. coli” value does the source give for “MAHHHHHHMTLENKALLCLIKKYEEKNKFLNVVEYIHYVCTNLYSYEENLNYNIMYDEFLKDLKKYLKENILDYKHILENILLKTDINYVNEQNIVNDILSKKKIYDISFEEVKNTTMKSEYSMENIKTSVKTENKDISLNKEECNKDDHVQEDNIDKYNGLEGKNREKNICRNWKDEKSQHEFYQLQSFEKNENREWFRVDPNLNWKEKQQLIYNEIEKLKNEIKKITVHSESTKIIISSMICQSKIFLYELEDNIKDYKILKEKIMNDKYLLKKGDYINEVYNGIIQNQRIKIDNVKKTNKTLLNLYNKKFSNINYIISLNENINNVDFLYLNVLIHNRKETPQPYEQLQNKIPEYTNKEKEIFSNIEKNNDSLNLLDNLIVDITNKIDTNMDITNK” here?
**A.** not soluble

**Q.** Which “soluble on expression in E. coli” value does the source give for “MVEVKPIIIDGHPFIAVSVQLPKTNLLAVAGEKGYIMCGALDVALLNEKLRDRGIIAGRAVGVRTIEQLLEAPLESVTVAALELGIEEGMKGREALLKMR” here?
**A.** not soluble

**Q.** For “MKEIYLPLHHGKAPHWLLSRMKKLAKPIVKLIVLEYGEREFLERLSNPIFFQSLSNVLGFDWNSSGVTTVLTGVLKAVINNEEFDIRIAGGKGGNALKTPEEIMNYSEQIGADGEKLVEFSRLAAKADNAALIDGYSLYHHAVIFTPRYFTVIQQGMNETERMARRYHWNVYSSVPELENVHEGIITERRENEVVNMLSDISRDAKRLCVDIVRDGSFRRDYERMISVLRWRKGLRVPKKLDWKVVERAYNLQPERFEELLLIRGFGRETIRALALVAEIIYNTEYDKTDPAKYCFAVGGKDGVPFPVRRDIYDEIIEFMRETVKQAEIGDFEKKKMLERLSRYGCDCQERRD”, which “soluble on expression in E. coli” value is on record?
**A.** soluble

**Q.** Which “soluble on expression in E. coli” value does the source give for “MGSDKIHHHHHHMKSEDNGESWSDTYFLTHGEKWHSSACNVLFSNGNVYLAMEQRCRLNEVTGWDVAGLSPTLFRACVEDNLCLASSWSRSEKFIYKEVFDGAKLDFFGIPFYDCETNKPKEIATGINNAPLGWLEANVVKFVDKDHIWHTDLKEVFHLFLRAHTGGVNYAHLFKIEIQDDQSMIPSLEHTPSGQKISYIPFPGGHLKFFIIYDELTRFYWLVSNQATDSMRRVSSLSNIKRYGLPNNERHRLQLHFSRNCVDWCFAGMVACSTNELYSRNYPSAVIKGDDLHIVCRSADEHALNPQYNNMITHHIVSNFRQLIY” here?
**A.** not soluble

**Q.** With “MPTVSVKRDLLFQALGRTYTDEEFDELCFEFGLELDEITSEKEIISKEQGNVKAAGASDVVLYKIDVPANRYDLLCLEGLVRGLQVFKERIKAPVYKRVMPDGKIQKLIITEETAKIRPFAVAAVLRNIKFTKDRYDSFIELQEKLHQNICRKRALVAIGTHDLDTLSGPFTYTAKRPSDIKFKPLNKTKEYTACELMNIYKTDNHLKHYLHIIENKPLYPVIYDSNGVVLSMPPIINGDHSRITVNTRNIFIECTGTDFTKAKIVLDIIVTMFSEYCENQFTVEAAEVVFPNGKSHTFPELAYRKEMVRADLINKKVGIRETPENLAKLLTRMYLKSEVIGDGNQIEIEIPPTRADIIHACDIVEDAAIAYGYNNIQMTLPKTYTIANQFPLNKLTELLRHDMAAAGFTEALTFALCSQEDIADKLGVDISATKAVHISNPKTAEFQVARTTLLPGLLKTIAANRKMPLPLKLFEISDIVIKDSNTDVGAKNYRHLCAVYYNKNPGFEIIHGLLDRIMQLLDVPPGEDKGGYVIKASEGPAFFPGRCAEIFARGQSVGKLGVLHPDVITKFELTMPCSSLEINIGPFL” as the sequence, how does the “soluble on expression in E. coli” value read?
**A.** soluble

**Q.** For “MSLCEDMLLCNYRKCRIKLSGYAWVTACSHIFCDQHGSGEFSRSPAICPACNSTLSGKLDIVRTELSPSEEYKAMVLAGLRPEIVLDISSRALAFWTYQVHQERLYQEYNFSKAEGHLKQMEKIYTQQIQSKDVELTSMKGEVTSMKKVLEEYKKKFSDISEKLMERNRQYQKLQGLYDSLRLRNITIANHEGTLEPSMIAQSGVLGFPLGNNSKFPLDNTPVRNRGDGDGDFQFRPFFAGSPTAPEPSNSFFSFVSPSRELEQQQVSSRAFKVKRI”, which “soluble on expression in E. coli” value is on record?
**A.** soluble

**Q.** Which “soluble on expression in E. coli” value does the source give for “MGSDKIHHHHHHMGEVYEKNNIDFDSIAKMLLIKYKDFILSKFKKAAPVENIRFQNLVHTNQFAQGVLGQSQHLCTVYDNPSWHSIVLETLDLDLIYKNVDKEFAKDGHAEGENIYTDYLVKELLRYFKQDFFKWCNKPDCNHCGQNTSENMTPLGSQGPNGEESKFNCGTVEIYKCNRCGNITRFPRYNDPIKLLETRKGRCGEWCNLFTLILKSFGLDVRYVWNREDHVWCEYFSNFLNRWVHVDSCEQSFDQPYIYSINWNKKMSYCIAFGKDGVVDVSKRYILQNELPRDQIKEEDLKFLCQFITKRLRYSLNDDEIYQLACRDEQEQIELIRGKTQETKSESVSAASKSSNRGRESGSADWKAQRGEDGK” here?
**A.** not soluble

**Q.** Which “soluble on expression in E. coli” value does the source give for “MGHHHHHHSHMSHTQQQTASSTETSTVTVPPSREQNLVLHLSPNPAQPSTSERRHVVWATETVDNEGMGKKKSKCCCIYKKPKNWQDSSSDSDSDCETGHCRGHVEHKKNEEPKSSN” here?
**A.** soluble

**Q.** For “MSTIDFRPYGGFIFDMDGTLIDTMPAHLAAWQATADRFDFPFCQEWLHSLGGMPSFKIVAELNRHYGLSLDPQTVSKFKMETFAAMELQGDVIQCTGIVLEEYLGQKKIAVGTGSQRESAMRLLSHAGLIDRLDAVVTASDVENHKPCPDTFLLAADRLGIDAQNCLVFEDTELGKRAAHSAGMDCVMVEGNNLVFYPKR”, which “soluble on expression in E. coli” value is on record?
**A.** not soluble

**Q.** Which “soluble on expression in E. coli” value does the source give for “MITMKIEDVYIWDINARWLGVTPYQLMENAGASVARVIEEKFGKNLKIAVFCGTGNNGGDGFVAARHLSYENDVTVFLIGEEVKIRSEEAKLNWNILKNLDFVKIKVLKDSSQIRELDLSEFDIIVDALLGAGTRGKPREPIKSAIEKINEYSGKVKIVSIDLPSGYPSEIRVKADFAVTFQWDKEEFKDFKRIIAKIGYPKELKYLVGPAHVKFAYKRKGEHKGQNGKLLIIGGSENYYGAPVLAASAAKHLVDLVFLLLPQNAARRVNDPDLIVREVDGLNFTPEHIKSALELVEKVDAIVIGPGIGVREETKEFVKGIIERVEKPIVVDADGLKIIAEFKDILKGKEIVLTPHAGEFKLLFGEKVPEDLVEKGKVVMRRAKEIGATILLKGKYDVISDGKVWLYNKTGNRGMTTGGTGDVLAGTVGAFLALGNKALKAAAAGAFLVGFAGDLVMEEKGEAFTARDVAEKIPIALKKIIEF” here?
**A.** soluble

**Q.** Which “soluble on expression in E. coli” value does the source give for “MHHHHHHGSACFAKGTNVLMADGSIECIENIEVGNKVMGKDGRPREVIKLPRGSETMYSVVQKSQHRAHKSDSSREMPELLKFTCNATHELVVRTPRSVRRLSRTIKGVEYFEVITFEMGQKKAPDGRIVELVKEVSKSYPVSEGPERANELVESYRKASNKAYFEWTIEARDLSLLGSHVRKATYQTYAPIGAAFARECRGFYFELQELKEDDYYGITLSDDSDHQFLLANQVVVH” here?
**A.** soluble

**Q.** With “MRTVDFTPLYRNAIGFDRLLNMMENSAAKNAQGGYPPYNIEQKEDNQYRITMAVAGFGDEEIDITQQENTLIVRGERKPEESKNYIYQGIAERDFERKFQLADYVKVTGATMEHGLLHIDLEREIPEAMQPRKIAINGKHLLENK” as the sequence, how does the “soluble on expression in E. coli” value read?
**A.** not soluble

**Q.** With “LTLGSISLTAFIMGVVFWGGFNTALEATNTEEFCIGCHSMESKPYQELQKTVHWSNHSGVRATCPDCHVPHSWGRKIARKMEASSDVWGWVFNTVNTSEKFEDKRLEMASREWARFERDDSLACKNCHNYDSMKWDTMSKLAQKQMKRAAEKDQSCVDCHKGIAHILPDMGTARAPQLIAEVGTGPSKFTNEQYYFSALTKPLFFSAKGDVEAGTLNVATKVKILESKENRVKVSISGWRKQIGAGRVIYYDFGINMLTAQLSKEAAKTEGVINGFEEKEDEMTGLKWQRVETTLWTDAEYLITEQQPLWDYARTTFRSSCSVCHTQPDEAHFDA” as the sequence, how does the “soluble on expression in E. coli” value read?
**A.** not soluble

**Q.** With “METATHYDLFIIGGGINGCGLARDAAGRGFKVGLAEMNDLASGTSSASTKLIHGGLRYLEYYEFRLVREALKEREIIWRMAPHIVRPLRFLLPYHKKLRPAWMLRFGLFIYDYLGNWNQKLWRSKTVNFSKSFCSILKEEYHKGFEYSDARVDDARLVIANARDAEKWGAVIKVRTEVLSLKSEEKKWVVILRDKLSGKESCVTASYVANMTGPWINHILSNVLDCKENPPVRLVRGSHILVPKLYAHDRAYIFQNGDGRILFSIPYQEEFTLLGTTDCGYQGDPADVHITDTEIDYICTAASEYFVQPVLRESIVWTYSGVRPLYDDGASKAQEITRDYVLKEMGTESTPRILNLYGGKITTYRKLAEDAMKFVEKALGKKGKPWTINSTLPGGDFPHNKLDTIENKIALLVPDLDAFTYRRLARSYGCEALMIFANGKADKGKNFGHGLYEVEVKWLMEKEWAKTCEDVLWRRSKLGLLFNKKEINALTAYMQKIQDNEQNS” as the sequence, how does the “soluble on expression in E. coli” value read?
**A.** not soluble
